Source: US20240327530A1 (ICHNOS SCIENCES, published 2024)

T1: Human IL-1RAP, membrane-bound on human cells (HaCaT, dermal fibroblasts, neutrophils, PBMC, whole blood) (human, UniProt Q9NPH3 21-570)
T1 construct: Endogenous protein on cells
T1 sequence: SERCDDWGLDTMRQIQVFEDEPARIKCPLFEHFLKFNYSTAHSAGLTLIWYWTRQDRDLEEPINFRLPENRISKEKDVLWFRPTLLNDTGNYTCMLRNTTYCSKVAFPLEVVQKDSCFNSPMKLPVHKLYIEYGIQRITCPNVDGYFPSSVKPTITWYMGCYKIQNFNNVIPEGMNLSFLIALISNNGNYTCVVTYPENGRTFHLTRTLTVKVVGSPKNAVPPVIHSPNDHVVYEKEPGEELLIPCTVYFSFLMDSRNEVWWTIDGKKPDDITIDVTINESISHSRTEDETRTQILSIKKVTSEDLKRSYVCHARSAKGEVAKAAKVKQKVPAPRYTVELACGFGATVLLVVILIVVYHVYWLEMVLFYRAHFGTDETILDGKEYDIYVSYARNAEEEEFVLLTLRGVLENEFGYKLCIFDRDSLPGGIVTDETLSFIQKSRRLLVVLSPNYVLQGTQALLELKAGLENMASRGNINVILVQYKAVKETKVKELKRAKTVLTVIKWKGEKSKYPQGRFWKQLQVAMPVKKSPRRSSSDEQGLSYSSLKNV

T2: Mouse IL-1RAP, membrane-bound on NIH-3T3 cells (mouse, UniProt Q61730 21-570)
T2 construct: Endogenous protein on cells
T2 sequence (looked up): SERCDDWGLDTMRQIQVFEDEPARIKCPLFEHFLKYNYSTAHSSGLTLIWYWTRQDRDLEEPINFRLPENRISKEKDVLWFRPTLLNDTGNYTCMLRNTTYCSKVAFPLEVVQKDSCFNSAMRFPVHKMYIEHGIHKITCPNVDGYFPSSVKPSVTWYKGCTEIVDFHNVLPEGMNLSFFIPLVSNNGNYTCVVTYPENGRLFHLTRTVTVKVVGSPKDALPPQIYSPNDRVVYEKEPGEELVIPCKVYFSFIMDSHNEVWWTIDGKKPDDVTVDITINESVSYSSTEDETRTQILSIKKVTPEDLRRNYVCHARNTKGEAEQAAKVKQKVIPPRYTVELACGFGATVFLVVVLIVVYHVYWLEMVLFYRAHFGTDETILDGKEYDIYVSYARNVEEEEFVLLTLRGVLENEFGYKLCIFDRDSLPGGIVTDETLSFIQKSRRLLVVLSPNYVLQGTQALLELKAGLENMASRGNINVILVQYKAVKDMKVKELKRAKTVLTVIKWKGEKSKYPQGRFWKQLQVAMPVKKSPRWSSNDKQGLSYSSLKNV


Legend:
[1] = molecular target: T1, Human IL-1RAP, membrane-bound on human …; experiment: flow cytometry on human neutrophils, anti-human IgG PE-Cyanine7, relative geometric MFI (isotype subtracted)
Protocol: A dose-response of anti-human IL-1RAP_candidate_1 (●) or Isotype control_5 (▪) was incubated with various cell lines and cell types. Bound antibodies were detected with a monoclonal anti-human IgG PE-Cyanine7 secondary antibody. The graphs show the nonlinear sigmoidal regression binding curves (Relative Geometric Mean Fluorescence Intensity) for each cell lines. Each data point is a measurement for a given cell line. Multiple independent experiments were performed across several donors (HaCaT and HaCaT IL-1RAP KO: 4 and 3 independent experiments; Human Dermal Fibroblasts: 2 independent experiments—total of 5 donors; Human Neutrophil: 2 experiments—total of 6 donors; Cyno Dermal Fibroblasts: 2 independent experiment—total of 4 donors).
In brief, cells were harvested, counted, and plated at 50,000 cells/well in a 96-well round-bottom plate. […] The cells were gated based on size on FSC vs SSC and analyzed for PE-Cyanine7-geometric mean (geomean) fluorescence intensity using FLOWJO® software. Finally, relative geomean fluorescence intensity was calculated by subtracting fluorescence of anti-human IL-1RAP_candidate_1 per fluorescence of Isotype control_5. […]

[2] = molecular target: T2, Mouse IL-1RAP, membrane-bound on …; experiment: flow cytometry on NIH-3T3 cells, nonlinear sigmoidal regression
Protocol: In brief, cells were harvested, counted, and plated at 50′000 cells/well in a 96-well round-bottom plate. The plate was centrifuged at 350 g for 3 minutes and the cells were resuspended in […] of FACS® buffer (PBS (1×)+2.5% FCS+2 mM EDTA+0.05% NaN₃) containing various concentrations (ranging from 20 to 0.0001 μg/ml) of either anti-mouse IL-1RAP_candidate_1 or Isotype control_2 antibodies. Stained cells were incubated for 30 minutes at 4° C., washed twice with FACS® buffer at 350 g for 3 min and resuspended in 100 μl of a monoclonal anti-mouse IgG PE-Cyanine7 secondary antibody (Biolegend, 407114) diluted 1/200 in FACS® buffer. Cells were then washed twice, and resuspended in 200 μl of FACS® buffer containing SYTOX® Green dead cell stain (THERMO FISHER […]®, S34860) and samples were acquired on a CYTOFLEX® instruments (Beckman Coulter). The cells were gated based on size on FSC vs SSC and analysed for PE-Cyanine7-geometric mean (geomean) fluorescence intensity using FLOWJO® software. Finally, relative geomean fluorescence intensity was calculated by subtracting fluorescence of anti-mouse IL-1RAP_candidate_1 per fluorescence of Isotype control_2. As depicted in FIG. 11, anti-mouse IL-1RAP_candidate_1 antibody recognizes membrane-bound IL-1RAP expressed on NIH-3T3 cell line. […] Each data point is a measurement for a given cell line. […]

EC50 (read off the curve) [1] | Kd [2] | Binder
~0.2 µg/mL |  | Anti-IL-1RAP-C8-RecC-ES-IgG1LALA (antibody, V domains shown, also called ISB 880-C8-recC-ES) VH: QVQLVQSGAEVKKPGSSVKVSCKASGSPAEPYAIQWVRQAPGQGLEWMGYIIPSLGGYDYAQKFQGRVTITADESTSTAYMELSSLRSEDTAVYYCARGQTLYESGRQFDIWGQGTLVTVSS VL: not shown
 | 1.15 nM | Anti-IL-1RAP-C3-A3 mmIgG2a LALA (antibody, V domains shown, also called anti-IL-1RAP-C3-A3 mouse IgG2a LALA) VH: EVQLLESGGGLVQPGGSLRLSCAASGFIFSHYGMSWVRQAPGKGLEWVSAISYDGEGTLYADSVKGRFTISRDNSKNTLYLQMNSLRAEDTAVYYCARFRYYTAFDYWGQGTLVTVSS VL: not shown
